In the nanobody polyreactivity screen of Harvey et al. (2022):

Assay: yeast display, Sf9 membrane polyspecificity reagent, FACS + sequencing; frameworks hold sequencing errors
Procedure, shortened: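 Galactose-induced (36–48 hours) yeast carrying a synthetic nanobody display library were exposed to 10% biotinylated, detergent-solubilized Sf9 membrane reagent at 4 °C for 1 hour. FACS followed streptavidin microbead enrichment, using low and high (top ~1%) gates for expression (anti-HA) and reagent binding (streptavidin). Colony PCR, MiSeq 2 × 250 sequencing and CDR-length filtering followed. Labels for polyreactivity reflect the gate of origin.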

Row | Sequence | polyreactivity (PSR sort gate)
1 | QVQLVESGGGLVQAGGSLRLSCAASGSIFPYYTMGWYRQAPGKERELVAAISGSGTSTYYADSVKGRFTISRDNAKNTVYLQMNSLKPEDTAVYYCAKRFRYGYVNYYYWGQGTQVTVSS | low polyreactivity
2 | QVQLVESGGGLVQAGGSLRLSCAASGSIFQANAMGWYRQAPGKEWEFVAAINWSTGTTYYADSVKGRFTISRDNAKNTVYLQMNSLKPEDTAVYYCNASDQAKYDYWGQGTQVTVSS | low polyreactivity
3 | QVQLVESGGGLVQAGGSLRLSCAASGSIFQEYAMGWYRQAPGKERELVAAIDDSDGSTYADSVKGRFTISRDNAKTTVYLQMNSLKPDDTAVYYCNADIHATYDYWGQGTQVTVSS | low polyreactivity
4 | QVQLVESGGGLVQAGGSLRLSCAASGSIFQGNAMGWYRQAPGKERELVAAISWSGDSTYYADSVKGRFTISRDNAKNTVYLQMNSLKPEDTAVYYCNAEWTRDFYEYDYWGQGTQVTVSS | low polyreactivity
5 | QVQLVESGGGLVQAGGSLRLSCAASGSIFQGNAMGWYRQAPGKERELVAGITRSGGSTYYADSVKGRFTISRDNAKNTVYLQMNSLKPEDTAVYYCAADYSSDGDYWGQGTQVTVSS | low polyreactivity
6 | QVQLVESGGGLVQAGGSLRLSCAASGSIFQGYAMGWYRQAPGKERELVASISRGGSTNYADSVKGRFTISRDNAKNTVYLQMNSLKPEDTAVYYCAARAYWYGRYGYWGQGTQVTVSS | high polyreactivity
7 | QVQLVESGGGLVQAGGSLRLSCAASGSIFQGYSMGWYRQAPGKERELVAAITASGGSTYYADSVKGRFTISRDNAKNTVSLKMNSLKPEDTAVYYCATDSYWRHDLYRYEYWGQGSQVTVSS | high polyreactivity
8 | QVQLVESGGGLVQAGGSLRLSCAASGSIFQHYAMGWYRQAPGKERELVARINWSGGRTYYADSVKGRFTISRDNAKNTVYLQMNSLKPEDTAVYYCNARYYYWGKAAFNYWGQGTQVTVSS | high polyreactivity
9 | QVQLVESGGGLVQAGGSLRLSCAASGSIFQHYAMGWYRQAPGKERELVARISYSGGNTYYADSVKGRFTISRDNAKNTVYLQMNSLKPEDTAVYYCAATRSHYPYRSGGDYWGQGTQVTVSS | low polyreactivity
10 | QVQLVESGGGLVQAGGSLRLSCAASGSIFQPYAMGWYRQAPGKERELVAAITNGGSTYYADSVKGRFTISRDNAKNTVYLQMNSLKPEDTAVYYCATDVLLYFEPVNLDYWGQGTQVTVSS | low polyreactivity
11 | QVQLVESGGGLVQAGGSLRLSCAASGSIFQVYAMGWYRQAPGKERELVATITSGGSTYYADSVKGRFTISRDNAKNTVYLQMNSLKPEDTAVYYCAAGVVYWWTGYPTISTYDYWGQGTQVTVSS | low polyreactivity
12 | QVQLVESGGGLVQAGGSLRLSCAASGSIFQYNAMGWYRQAPGKERELVADITSAGRTYYADSVKGRFTISRDNAKNTVYLQMNSLKPEDTAVYYCNKDYHYHFSWYGYWGQGTQVTVSS | low polyreactivity
13 | QVQLVESGGGLVQAGGSLRLSCAASGSIFQYNTMGWYRQAPGKESELVASISWRSGSTYYADSVKGRFTISRDNAKNTVYLQMNSLKPEDTAVYYCAAQVDPWWYDAGYDYWGQGTQVTVSS | low polyreactivity
14 | QVQLVESGGGLVQAGGSLRLSCAASGSIFQYYAMGWYRQPPGKEREFVAAITSDGSSTYYADSVKGRFTISRDNAKNTVYLQMNSLKPEDTAVYDCAAGWVGDRRPSMYYWGQGTQVTVSS | high polyreactivity
15 | QVQLVESGGGLVQAGGSLRLSCAASGSIFQYYVMGWYRQAPGKERELVAAIRRSGTTYYADSVKGRFTISRDNAKNTVYLQMNSLNPEDTAVYYCNKVRGQEPSNYDYWGQGTQVTVSS | low polyreactivity
16 | QVQLVESGGGLVQAGGSLRLSCAASGSIFQYYVMGWYRQAPGKERELVAAIRRSGTTYYADSVKGRFTISRDNAMITVYLQMNSLKPEVTAFYYCKKVRCQEPSNYDYWGQGTQVTVSS | low polyreactivity
17 | QVQLVESGGGLVQAGGSLRLSCAASGSIFQYYVMGWYRQAPGKERELVAAISQSGGRTYYADSVKGRFTISRDNAKNTVYLQMNSLKPVDTAVFYCAADSRNAEYDYWGQGTQVTVSS | high polyreactivity
